From PMC8878332

Biological target: Human plasminogen (human)
Assay: ELISA; plasminogen immobilised on plate wells (1 ug in 100 uL PBS), blocked with 1% gelatin; AdcA 0-1 uM in PBS, 1.5 h at 37 C; bound AdcA detected with rabbit anti-AdcA serum; apparent KD from the fit to total binding saturation (GraphPad Prism); MntC run as control; EACA (0.1-10 mM) or NaCl (25-800 mM) added in further panels

Substance: Staphylococcus aureus zinc transport protein AdcA, recombinant full-length protein (natural protein)
- Kd: 45.1 nM
